Reference: US10022453B2 (BAYER PHARMA AKTIENGESELLSCHAFT, priority 2013, dated 2018)
Residue numbers refer to the chain shown, from its start.

Experiments:
[1] = Cell permeability, flux assay using Caco-2 cells; details: human, Caco-2
[2] = molecular target: T1, human kinesin spindle protein KSP/Eg5 (Homo sapiens, UniProt P52732); assay: Inhibition of the kinesin spindle protein KSP/Eg5 (ATPase, malachite green); format: biochemical; details: 10 nM KSP motor domain, 500 μM ATP, 2 h RT
T1 construct: The motor domain of the human kinesin spindle protein KSP/Eg5; purchased tebu-bio/Cytoskeleton Inc 027EG01-XL
T1 sequence (P52732 18-359 limits assumed): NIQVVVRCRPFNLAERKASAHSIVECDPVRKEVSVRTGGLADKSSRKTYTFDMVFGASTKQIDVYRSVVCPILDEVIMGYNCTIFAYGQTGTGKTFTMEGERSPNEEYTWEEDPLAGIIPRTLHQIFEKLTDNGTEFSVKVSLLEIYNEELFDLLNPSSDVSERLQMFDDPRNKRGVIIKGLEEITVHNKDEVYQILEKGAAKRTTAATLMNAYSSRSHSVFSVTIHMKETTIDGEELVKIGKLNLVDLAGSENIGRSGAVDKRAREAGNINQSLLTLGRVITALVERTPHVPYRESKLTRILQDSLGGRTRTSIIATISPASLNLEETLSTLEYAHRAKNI
In short: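 KSP/Eg5 motor domain (10 nM) preincubated 5 min at RT with 50 μg/ml taxol-stabilized bovine or porcine microtubules in 15 mM PIPES pH 6.8, 5 mM MgCl2, 10 mM DTT. IC50 = mean of three experiments.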

[3] = system: NCI-H292; assay: Cytotoxic effects, MTT assay; format: cell-based; details: Homo sapiens, 72 h incubation
Protocol: The cells are cultivated by a standard method, as indicated in the […] (ATCC) for the respective cell lines.
At the end of the selected incubation time, the MTT reagent is incubated with the cells for 4 h, followed by lysis of the cells overnight by addition of the detergent. […] The proliferation of cells which were not treated with test substance but were otherwise identically treated was defined as the 100% figure.

[4] = system: NCI-H292 tumour model; assay: Anti-EGFR ADCs in the NCI-H292 tumour model on single treatment; format: in vivo, female NMRI-nude mice; details: 2.5 mg/kg once on day 9; day 25
Protocol: Growth Inhibition/Regression of Experimental Tumours in the Mouse
The tumour area is determined as length×width.
When after the end of the treatment all groups of the experiment are terminated at the same time, the tumours can be removed and weighed.
C-6c. Efficacy of the Anti-EGFR Antibody Drug Conjugates in the NCI-H292 Tumour Model on Single Treatment
After the treatment, the tumour growth is monitored up to day 25.

[5] = molecular target: T2, TWEAKR-Fc WT (TPP-599) (Homo sapiens, UniProt Q9NP84); assay: ELISA, effect of TWEAKR-Fc muteins on antibody binding; details: 62 ng/ml TWEAKR-Fc coated, biotinylated IgG from 100 nM
T2 construct: hTNFRSF12 amino acids a28-80-hIgG1-Fc
Protocol: (§1) Effect of TWEAKR-Fc Muteins on the Antibody Affinity
(§2) To this end, the full-length ectodomain (amino acids 28-80) having the individual amino acid substitutions below were expressed and purified as Fc fusion proteins: T33Q; S40R; W42A; M50A; R56P; H60K; L65Q.
(§3) Detection was carried out using streptavidin-HRP and Amplex Red.
(§4) The dose-reaction data were fitted and the IC50s were determined.

[6] = molecular target: T3, TWEAKR-Fc mutein H60K (Homo sapiens, UniProt Q9NP84, H60K); assay: as above; details: 62 ng/ml mutein coated, biotinylated IgG from 100 nM
T3 construct: the full-length ectodomain (amino acids 28-80); made in house
Protocol: as §1, §2, §3, §4

[7] = molecular target: T4, TWEAKR-Fc mutein W42A (Homo sapiens, UniProt Q9NP84, W42A); assay: as above; details: 62 ng/ml mutein coated, biotinylated IgG from 100 nM
T4 construct: the full-length ectodomain (amino acids 28-80); made in house
Protocol: as §1, §2, §3, §4

[8] = molecular target: T5, TWEAKR-Fc mutein R56P (Homo sapiens, UniProt Q9NP84, R56P); assay: as above; details: 62 ng/ml mutein coated, biotinylated IgG from 100 nM
T5 construct: the full-length ectodomain (amino acids 28-80); made in house
Protocol: as §1, §2, §3, §4

[9] = molecular target: T6, TWEAKR-Fc mutein T33Q (Homo sapiens, UniProt Q9NP84, T33Q); assay: as above; details: 62 ng/ml mutein coated, biotinylated IgG from 100 nM
T6 construct: the full-length ectodomain (amino acids 28-80); made in house
Protocol: as §1, §2, §3, §4

[10] = molecular target: T7, TWEAKR-Fc mutein L65Q (Homo sapiens, UniProt Q9NP84, L65Q); assay: as above; details: 62 ng/ml mutein coated, biotinylated IgG from 100 nM
T7 construct: the full-length ectodomain (amino acids 28-80); made in house
Protocol: as §1, §2, §3, §4

[11] = molecular target: T8, TWEAKR-Fc mutein M50A (Homo sapiens, UniProt Q9NP84, M50A); assay: as above; details: 62 ng/ml mutein coated, biotinylated IgG from 100 nM
T8 construct: the full-length ectodomain (amino acids 28-80); made in house
Protocol: as §1, §2, §3, §4

[12] = molecular target: T9, TWEAKR-Fc mutein S40R (Homo sapiens, UniProt Q9NP84, S40R); assay: as above; details: 62 ng/ml mutein coated, biotinylated IgG from 100 nM
T9 construct: the full-length ectodomain (amino acids 28-80); made in house
Protocol: as §1, §2, §3, §4

[13] = molecular target: T10, recombinant human TWEAKR protein (TPP-2305) (Homo sapiens, UniProt Q9NP84); assay: Binding affinities by Biacore analysis; details: monovalent
T10 construct: purchased Fitzgerald Inc 30R-AT080
Protocol: Determination of Binding Affinities by Biacore Analysis:
Binding affinities of anti-TWEAKR antibodies were examined using surface plasmon resonance analysis on a Biacore T100 instrument (GE Healthcare Biacore, Inc.). The antibodies were immobilized on a CM5 sensor chip using an indirect capture reagent, anti-human IgG(Fc). […] Anti-TWEAKR antibodies were injected at a concentration of 10 μg/ml at […] for 10 sec.
Sensorgrams were generated after in-line reference cell correction, followed by subtraction of the buffer sample. The dissociation constant (KD) was calculated based on the ratio of association (kon) and dissociation (koff) constants, obtained by fitting sensorgrams using a 1:1 first order binding model.

CC(C)(C)[C@H](c1cc(-c2cc(F)ccc2F)cn1Cc1ccccc1)N(CCCN)C(=O)CSC[C@H](NC(=O)CCOCCOCCOCCOCCNC(=O)CCN1C(=O)CC(SC[C@H](N)C(=O)O)C1=O)C(=O)O.O=C(O)C(F)(F)F.O=C(O)C(F)(F)F (stereo partly drawn) [Example 226, (2R)-22-[(3R/S)-3-{[(2R)-2-Amino-2-carboxyethyl]sulphanyl}-2,5-dioxopyrrolidin-1-yl]-2-[({2-[(3-aminopropyl){(1R)-1-[1-benzyl-4-(2,5-difluorophenyl)-1H-pyrrol-2-yl]-2,2-dimethylpropyl}amino]-2-oxoethyl}sulphanyl)methyl]-4,20-dioxo-7,10,13,16-tetraoxa-3,19-diazadocosan-1-oic acid/trifluoroacetic (1:2)]
Papp B→A at 2 h [1]: 0.3 ×10⁻⁶ cm/s
efflux ratio at 2 h [1]: 0.2
IC50 [2]: 1.49 nM
IC50 [3]: 222 nM

CC(C)(C)[C@H](c1cc(-c2cc(F)ccc2F)cn1Cc1ccccc1)N(CCCN)C(=O)CSCCC(N)C(=O)O.O=C(O)C(F)(F)F.O=C(O)C(F)(F)F (stereo partly drawn) [Example 232, S-{2-[(3-Aminopropyl){(1R)-1-[1-benzyl-4-(2,5-difluorophenyl)-1H-pyrrol-2-yl]-2,2-dimethylpropyl}amino]-2-oxoethyl}homocysteine/trifluoroacetic acid (1:2)]
Papp B→A at 2 h [1]: 4.9 ×10⁻⁶ cm/s
efflux ratio at 2 h [1]: 14
IC50 [2]: 2.2 nM
IC50 [3]: 15.5 nM

CC(C)(C)[C@H](c1nc(-c2cc(F)ccc2F)cn1Cc1ccccc1)N(CCCN)C(=O)CO [toxophor A, N-(3-aminopropyl)-N-{(1R)-1-[1-benzyl-4-(2,5-difluorophenyl)-1H-imidazol-2-yl]-2,2-dimethylpropyl}-2-hydroxyacetamide]
T/C area [4]: 0.87
T/C weight [4]: 0.82

CC(C)(C)[C@H](c1nc(-c2cc(F)ccc2F)cn1Cc1ccccc1)N(CC[C@@H](N)CF)C(=O)CO [toxophor B, N-[(3R)-3-amino-4-fluorobutyl]-N-{(1R)-1-[1-benzyl-4-(2,5-difluorophenyl)-1H-imidazol-2-yl]-2,2-dimethylpropyl}-2-hydroxyacetamide]
T/C area [4]: 0.57
T/C weight [4]: 0.40

B1: P3G5(TPP-2195): comparative anti-TWEAKR antibody; variable domains from WO2009/140177, constant region added, "resulting in full-length IgGs" (protein)
light: DIVLTQSPASLAVSLGQRATISCRANKSVSTSSYSYMHWYQQKPGQPPKLLIKYASNLESGVPARFSGSGSGTDFILNIHPVEEEDAATYYCQHSRELPFTFGSGTKLEIKRADAAPTVSIFPPSSEQLTSGGASVVCFLNNFYPKDINVKWKIDGSERQNGVLNSWTDQDSKDSTYSMSSTLTLTKDEYERHNSYTCEATHKTSTSPIVKSFNRNEC
heavy: QVQLQQSGPEVVRPGVSVKISCKGSGYTFTDYGIHWVKQSHAKSLEWIGVISTYNGYTNYNQKFKGKATMTVDKSSSTAYMELARLTSEDSAIYYCARAYYGNLYYAMDYWGQGTSVTVSSAKTTAPSVYPLAPVCGDTTGSSVTLGCLVKGYFPEPVTLTWNSGSLSSGVHTFPAVLQSDLYTLSSSVTVTSSTWPSQSITCNVAHPASSTKVDKKIEPRGPTIKPCPPCKCPAPNLLGGPSVFIFPPKIKDVLMISLSPIVTCVVVDVSEDDPDVQISWFVNNVEVHTAQTQTHREDYNSTLRVVSALPIQHQDWMSGKEFKCKVNNKDLPAPIERTISKPKGSVRAPQVYVLPPPEEEMTKKQVTLTCMVTDFMPEDIYVEWTNNGKTELNYKNTEPVLDSDGSYFMYSKLRVEKKNWVERNSYSCSVVHEGLHNHHTTKSFSRTPG
modifications: Mus Musculus
IC50 [5]: 0.001 to 0.15 nM
IC50 [6]: 0.001 to 0.15 nM
IC50 [7]: > 50 nM
IC50 [8]: 0.001 to 0.15 nM
IC50 [9]: 0.001 to 0.15 nM
IC50 [10]: 0.001 to 0.15 nM
IC50 [11]: 0.001 to 0.15 nM
IC50 [12]: 0.001 to 0.15 nM
ka [13]: 2.31e+06 M⁻¹ s⁻¹
kd [13]: 0.00122 s⁻¹

B2: P2D3(TPP-2196): comparative anti-TWEAKR antibody; variable domains from the patent literature, constant region added, "resulting in full-length IgGs" (protein)
light: B1 light with N26S, A55T, F100W, S104G
heavy: QVSLKESGPGILQPSQTLSLTCSFSGFSLSTSGMGVSWIRQPSGKGLEWLAHIYWDDDKRYNPSLKSRLTISKDTSRNQVFLKITSVDTADTATYYCARRGPDYYGYYPMDYWGQGTSVTVSAKTTAPSVYPLAPVCGDTTGSSVTLGCLVKGYFPEPVTLTWNSGSLSSGVHTFPAVLQSDLYTLSSSVTVTSSTWPSQSITCNVAHPASSTKVDKKIEPRGPTIKPCPPCKCPAPNLLGGPSVFIFPPKIKDVLMISLSPIVTCVVVDVSEDDPDVQISWFVNNVEVHTAQTQTHREDYNSTLRVVSALPIQHQDWMSGKEFKCKVNNKDLPAPIERTISKPKGSVRAPQVYVLPPPEEEMTKKQVTLTCMVTDFMPEDIYVEWTNNGKTELNYKNTEPVLDSDGSYFMYSKLRVEKKNWVERNSYSCSVVHEGLHNHHTTKSFSRTPG
modifications: Mus Musculus
ka [13]: 1.32e+06 M⁻¹ s⁻¹
kd [13]: 0.000564 s⁻¹
Kd ([13]; read-out: KD (n M )): 0.4 nM

B3: 136.1(TPP-2194): comparative anti-TWEAKR antibody; variable domains from WO2009/020933, constant region added, "resulting in full-length IgGs" (protein)
light: DIVLTQSPASLTVSLGQRATISCRASQSVSTSSYSYMQWYQQRPGQPPKLLIKYATNLDSGVPARFSGSGSGTDFTLNIHPVEEEDAATYYCQHSWEIPYTFGGGTKLEIKRADAAPTVSIFPPSSEQLTSGGASVVCFLNNFYPKDINVKWKIDGSERQNGVLNSWTDQDSKDSTYSMSSTLTLTKDEYERHNSYTCEATHKTSTSPIVKSFNRNEC
heavy: EVKLEESGGGLVQPGGSMKLSCVASGFTFNNYWMSWVRQSPEKGLEWLAEIRLKSDNYATHYAESVKGKFTISRDDSKSRLYLQMNNLRAENTGIYYCTGGFADYFDYWGQGTTLTVSSAKTTAPSVYPLAPVCGDTTGSSVTLGCLVKGYFPEPVTLTWNSGSLSSGVHTFPAVLQSDLYTLSSSVTVTSSTWPSQSITCNVAHPASSTKVDKKIEPRGPTIKPCPPCKCPAPNLLGGPSVFIFPPKIKDVLMISLSPIVTCVVVDVSEDDPDVQISWFVNNVEVHTAQTQTHREDYNSTLRVVSALPIQHQDWMSGKEFKCKVNNKDLPAPIERTISKPKGSVRAPQVYVLPPPEEEMTKKQVTLTCMVTDFMPEDIYVEWTNNGKTELNYKNTEPVLDSDGSYFMYSKLRVEKKNWVERNSYSCSVVHEGLHNHHTTKSFSRTPG
modifications: Mus Musculus
IC50 [5]: 0.001 to 0.15 nM
IC50 [6]: 0.001 to 0.15 nM
IC50 [7]: > 50 nM
IC50 [8]: > 50 nM
IC50 [9]: 0.001 to 0.15 nM
IC50 [10]: 0.001 to 0.15 nM
IC50 [11]: 0.001 to 0.15 nM
IC50 [12]: 0.001 to 0.15 nM
ka [13]: 3.84e+07 M⁻¹ s⁻¹
kd [13]: 0.0324 s⁻¹
